Measurements reported in patent US20220204580A1 (AstraZeneca / MedImmune, published 2022).
Numbered stars: 1 amine (or outer) side, 2 acyl side, 3 side chain; on linkers, the order of the positions; unused ones are H or OH. Bridge positions count the residues as written; N and C are the ends. Square brackets hold non-standard residues; d marks the D form. Side chains are listed from the residue outwards. Ends that are not written are not given here. * marks the point of attachment. C18 diacid = O=C(O)CCCCCCCCCCCCCCCCC(=O)*; γGlu = O=C(O)[C@H](CCC(=O)[*:2])N[*:1]; αMeF = C[C@](N)(Cc1ccccc1)C(=O)O; Dab = NCC[C@H](N)C(=O)O; AEEA = NCCOCCOCC(=O)O; Aib = CC(C)(N)C(=O)O

T1: human amylin receptor (calcitonin receptor co-expressed with receptor activity modifying protein, RAMP3) (human, UniProt P30988 25-474; O60896 24-148)
T1 sequence (looked up) 1: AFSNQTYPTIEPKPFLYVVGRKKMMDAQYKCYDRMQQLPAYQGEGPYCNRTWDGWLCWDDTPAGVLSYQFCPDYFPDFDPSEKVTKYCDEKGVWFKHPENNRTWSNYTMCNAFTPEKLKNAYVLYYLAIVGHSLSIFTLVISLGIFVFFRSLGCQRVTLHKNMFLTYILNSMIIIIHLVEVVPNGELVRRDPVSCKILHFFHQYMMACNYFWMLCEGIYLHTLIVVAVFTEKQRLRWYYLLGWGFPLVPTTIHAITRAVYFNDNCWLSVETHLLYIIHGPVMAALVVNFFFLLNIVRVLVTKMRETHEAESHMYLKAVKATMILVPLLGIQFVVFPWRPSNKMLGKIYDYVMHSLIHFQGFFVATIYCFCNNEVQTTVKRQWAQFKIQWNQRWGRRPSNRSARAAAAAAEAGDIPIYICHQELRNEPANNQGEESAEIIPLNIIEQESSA
T1 sequence (looked up) 2: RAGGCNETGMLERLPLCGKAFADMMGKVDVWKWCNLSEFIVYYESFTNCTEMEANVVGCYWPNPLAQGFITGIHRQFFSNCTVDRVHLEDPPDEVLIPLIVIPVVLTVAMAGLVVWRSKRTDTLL

T2: human calcitonin receptor (human, UniProt P30988 25-474)
T2 sequence (looked up): T1 sequence (looked up) 1

B1: Peptide 17 (SEQ ID NO: 17) (peptide)
peptide: K([AEEA-AEEA-γGlu-C18 diacid])CNTATCATQRLANFLRHSSNN[αMeF]GPILPPTEVGSNTY-NH2
modifications: disulfide 2-7; N-terminus assumed
SMILES: CC[C@H](C)[C@H](NC(=O)[C@@H]1CCCN1C(=O)CNC(=O)[C@](C)(Cc1ccccc1)NC(=O)[C@H](CC(N)=O)NC(=O)[C@H](CC(N)=O)NC(=O)[C@H](CO)NC(=O)[C@H](CO)NC(=O)[C@H](Cc1c[nH]cn1)NC(=O)[C@H](CCCNC(=N)N)NC(=O)[C@H](CC(C)C)NC(=O)[C@H](Cc1ccccc1)NC(=O)[C@H](CC(N)=O)NC(=O)[C@H](C)NC(=O)[C@H](CC(C)C)NC(=O)[C@H](CCCNC(=N)N)NC(=O)[C@H](CCC(N)=O)NC(=O)[C@@H](NC(=O)[C@H](C)NC(=O)[C@@H]1CSSC[C@H](NC(=O)[C@@H](N)CCCCNC(=O)COCCOCCNC(=O)COCCOCCNC(=O)CC[C@H](NC(=O)CCCCCCCCCCCCCCCCC(=O)O)C(=O)O)C(=O)N[C@@H](CC(N)=O)C(=O)N[C@@H]([C@@H](C)O)C(=O)N[C@@H](C)C(=O)N[C@@H]([C@@H](C)O)C(=O)N1)[C@@H](C)O)C(=O)N[C@@H](CC(C)C)C(=O)N1CCC[C@H]1C(=O)N1CCC[C@H]1C(=O)N[C@H](C(=O)N[C@@H](CCC(=O)O)C(=O)N[C@H](C(=O)NCC(=O)N[C@@H](CO)C(=O)N[C@@H](CC(N)=O)C(=O)N[C@H](C(=O)N[C@@H](Cc1ccc(O)cc1)C(N)=O)[C@@H](C)O)C(C)C)[C@@H](C)O
B2: Peptide 156 (SEQ ID NO: 156) (peptide)
peptide: K([γGlu-C18 diacid])KCNTATCATQRLA[Dab]FL[Aib]HSSNNFGPILPPTEVGSNTY-NH2
modifications: disulfide 3-8; N-terminus assumed
SMILES: CC[C@H](C)[C@H](NC(=O)[C@@H]1CCCN1C(=O)CNC(=O)[C@H](Cc1ccccc1)NC(=O)[C@H](CC(N)=O)NC(=O)[C@H](CC(N)=O)NC(=O)[C@H](CO)NC(=O)[C@H](CO)NC(=O)[C@H](Cc1c[nH]cn1)NC(=O)C(C)(C)NC(=O)[C@H](CC(C)C)NC(=O)[C@H](Cc1ccccc1)NC(=O)[C@H](CCN)NC(=O)[C@H](C)NC(=O)[C@H](CC(C)C)NC(=O)[C@H](CCCNC(=N)N)NC(=O)[C@H](CCC(N)=O)NC(=O)[C@@H](NC(=O)[C@H](C)NC(=O)[C@@H]1CSSC[C@H](NC(=O)[C@H](CCCCN)NC(=O)[C@@H](N)CCCCNC(=O)CC[C@H](NC(=O)CCCCCCCCCCCCCCCCC(=O)O)C(=O)O)C(=O)N[C@@H](CC(N)=O)C(=O)N[C@@H]([C@@H](C)O)C(=O)N[C@@H](C)C(=O)N[C@@H]([C@@H](C)O)C(=O)N1)[C@@H](C)O)C(=O)N[C@@H](CC(C)C)C(=O)N1CCC[C@H]1C(=O)N1CCC[C@H]1C(=O)N[C@H](C(=O)N[C@@H](CCC(=O)O)C(=O)N[C@H](C(=O)NCC(=O)N[C@@H](CO)C(=O)N[C@@H](CC(N)=O)C(=O)N[C@H](C(=O)N[C@@H](Cc1ccc(O)cc1)C(N)=O)[C@@H](C)O)C(C)C)[C@@H](C)O
B3: Peptide 155 (SEQ ID NO: 155) (peptide)
peptide: K([γGlu-C18 diacid])CNTATCATQRLANFL[Aib]HSSNNFGPILPPTRVGSNTY-NH2
modifications: disulfide 2-7; N-terminus assumed
SMILES: CC[C@H](C)[C@H](NC(=O)[C@@H]1CCCN1C(=O)CNC(=O)[C@H](Cc1ccccc1)NC(=O)[C@H](CC(N)=O)NC(=O)[C@H](CC(N)=O)NC(=O)[C@H](CO)NC(=O)[C@H](CO)NC(=O)[C@H](Cc1c[nH]cn1)NC(=O)C(C)(C)NC(=O)[C@H](CC(C)C)NC(=O)[C@H](Cc1ccccc1)NC(=O)[C@H](CC(N)=O)NC(=O)[C@H](C)NC(=O)[C@H](CC(C)C)NC(=O)[C@H](CCCNC(=N)N)NC(=O)[C@H](CCC(N)=O)NC(=O)[C@@H](NC(=O)[C@H](C)NC(=O)[C@@H]1CSSC[C@H](NC(=O)[C@@H](N)CCCCNC(=O)CC[C@H](NC(=O)CCCCCCCCCCCCCCCCC(=O)O)C(=O)O)C(=O)N[C@@H](CC(N)=O)C(=O)N[C@@H]([C@@H](C)O)C(=O)N[C@@H](C)C(=O)N[C@@H]([C@@H](C)O)C(=O)N1)[C@@H](C)O)C(=O)N[C@@H](CC(C)C)C(=O)N1CCC[C@H]1C(=O)N1CCC[C@H]1C(=O)N[C@H](C(=O)N[C@@H](CCCNC(=N)N)C(=O)N[C@H](C(=O)NCC(=O)N[C@@H](CO)C(=O)N[C@@H](CC(N)=O)C(=O)N[C@H](C(=O)N[C@@H](Cc1ccc(O)cc1)C(N)=O)[C@@H](C)O)C(C)C)[C@@H](C)O
B4: Peptide 19 (SEQ ID NO: 19) (peptide)
peptide: K([γGlu-C18 diacid])CNTATCATQRLANFLRHSSNN[αMeF]GPILPPTNVGSNTY-NH2
modifications: disulfide 2-7; N-terminus assumed
SMILES: CC[C@H](C)[C@H](NC(=O)[C@@H]1CCCN1C(=O)CNC(=O)[C@](C)(Cc1ccccc1)NC(=O)[C@H](CC(N)=O)NC(=O)[C@H](CC(N)=O)NC(=O)[C@H](CO)NC(=O)[C@H](CO)NC(=O)[C@H](Cc1c[nH]cn1)NC(=O)[C@H](CCCNC(=N)N)NC(=O)[C@H](CC(C)C)NC(=O)[C@H](Cc1ccccc1)NC(=O)[C@H](CC(N)=O)NC(=O)[C@H](C)NC(=O)[C@H](CC(C)C)NC(=O)[C@H](CCCNC(=N)N)NC(=O)[C@H](CCC(N)=O)NC(=O)[C@@H](NC(=O)[C@H](C)NC(=O)[C@@H]1CSSC[C@H](NC(=O)[C@@H](N)CCCCNC(=O)CC[C@H](NC(=O)CCCCCCCCCCCCCCCCC(=O)O)C(=O)O)C(=O)N[C@@H](CC(N)=O)C(=O)N[C@@H]([C@@H](C)O)C(=O)N[C@@H](C)C(=O)N[C@@H]([C@@H](C)O)C(=O)N1)[C@@H](C)O)C(=O)N[C@@H](CC(C)C)C(=O)N1CCC[C@H]1C(=O)N1CCC[C@H]1C(=O)N[C@H](C(=O)N[C@@H](CC(N)=O)C(=O)N[C@H](C(=O)NCC(=O)N[C@@H](CO)C(=O)N[C@@H](CC(N)=O)C(=O)N[C@H](C(=O)N[C@@H](Cc1ccc(O)cc1)C(N)=O)[C@@H](C)O)C(C)C)[C@@H](C)O

Molecular target: T1, human amylin receptor (calcitonin …)
Assay: cell-based or functional assay

Binder	EC50 (cAMP production) [nM]	Ratio (EC50 hCTR / EC50 hAMYR3)
B1	0.365	19
B2	3.75	22.3
B3	0.329	11.9
B4	0.278	15

Molecular target: T2, human calcitonin receptor
Assay: cell-based or functional assay

Binder	EC50 (cAMP production) [nM]
B1	7.08
B2	83.8
B3	3.93
B4	4.04
